Results on 4 sequences are retold here after the supplement of paper PMC5998384.

Series [1] has as its system HeLa Kyoto. Put plainly: solubility in G1/S (NP-40 vs SDS abundance) (log2 ratio); higher = more soluble. Particulars: cell cycle stage: G1/S.
The test system of series [2] is HeLa Kyoto. Put plainly: melting temperature (median over replicates), in situ; higher = more thermally stable.
The test system of series [3] is HeLa Kyoto. Put plainly: solubility change mitosis vs G1/S (difference of NP-40 vs SDS log2 ratios) (log2 ratio difference); higher = more soluble in mitosis.
Series [4] has as its system HeLa Kyoto. Nature of the series: thermal stability score vs G1/S (z-score of summed log2 fold changes over temperatures); higher = more thermally stable than in G1/S.
[5] abbreviates: cell cycle stage: early G1 (4.5 h after nocodazole release).
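For melting temperature (median over replicates), in situ in this document: HeLa Kyoto cells synchronized by double thymidine or nocodazole block, proteins quantified by TMT10plex mass spectrometry, three independent biological replicates.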
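For solubility change mitosis vs G1/S (difference of NP-40 vs SDS log2 ratios) in this document: synchronized HeLa Kyoto cells (double thymidine block for G1/S, nocodazole release for mitosis), protein amounts in NP-40 versus SDS lysates quantified by mass spectrometry, three biological replicates.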
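For solubility in G1/S (NP-40 vs SDS abundance) in this document: HeLa Kyoto cells arrested at G1/S by double thymidine block, proteins quantified by TMT10plex mass spectrometry in mild NP-40 versus SDS extracts, three biological replicates.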
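For thermal stability score vs G1/S (z-score of summed log2 fold changes over temperatures) in this document: synchronized HeLa Kyoto cells, proteins quantified by TMT10plex mass spectrometry, three biological replicates, mitosis taken 0.5 h after nocodazole release, G1/S directly after double thymidine block.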

As for “MAADSEPESEVFEITDFTTASEWERFISKVEEVLNDWKLIGNSLGKPLEKGIFTSGTWEEKSDEISFADFKFSVTHHYLVQESTDKEGKDELLEDVVPQSMQDLLGMNNDFPPRAHCLVRWYGLREFVVIAPAAHSDAVLSESKCNLLLSSVSIALGNTGCQVPLFVQIHHKWRRMYVGECQGPGVRTDFEMVHLRKVPNQYTHLSGLLDIFKSKIGCPLTPLPPVSIAIRFTYVLQDWQQYFWPQQPPDIDALVGGEVGGLEFGKLPFGACEDPISELHLATTWPHLTEGIIVDNDVYSDLDPIQAPHWSVRVRKAENPQCLLGDFVTEFFKICRRKESTDEILGRSAFEEEGKETADITHALSKLTEPASVPIHKLSVSNMVHTAKKKIRKHRGVEESPLNNDVLNTILLFLFPDAVSEKPLDGTTSTDNNNPPSESEDYNLYNQFKSAPSDSLTYKLALCLCMINFYHGGLKGVAHLWQEFVLEMRFRWENNFLIPGLASGPPDLRCCLLHQKLQMLNCCIERKKARDEGKKTSASDVTNIYPGDAGKAGDQLVPDNLKETDKEKGEVGKSWDSWSDSEEEFFECLSDTEELKGNGQESGKKGGPKEMANLRPEGRLYQHGKLTLLHNGEPLYIPVTQEPAPMTEDLLEEQSEVLAKLGTSAEGAHLRARMQSACLLSDMESFKAANPGCSLEDFVRWYSPRDYIEEEVIDEKGNVVLKGELSARMKIPSNMWVEAWETAKPIPARRQRRLFDDTREAEKVLHYLAIQKPADLARHLLPCVIHAAVLKVKEEESLENISSVKKIIKQIISHSSKVLHFPNPEDKKLEEIIHQITNVEALIARARSLKAKFGTEKCEQEEEKEDLERFVSCLLEQPEVLVTGAGRGHAGRIIHKLFVNAQRAAAMTPPEEELKRMGSPEERRQNSVSDFPPPAGREFILRTTVPRPAPYSKALPQRMYSVLTKEDFRLAGAFSSDTSFF [RAB3GAP1]”, in the series with HeLa Kyoto [1], the “solubility in G1/S (log2)” value is -0.0664. The melting temperature turned out to be 48.9 °C with HeLa Kyoto [2] (cell cycle stage: G1/S) and 49.4 °C in the series on HeLa Kyoto [2] (cell cycle stage: mitosis). Further, in the series on HeLa Kyoto [3], the “solubility change mitosis (log2)” value is -0.113. Moreover, the values for the thermal stability score with HeLa Kyoto [4] (setting [5]) and in the series on HeLa Kyoto [4] (cell cycle stage: mitosis) were -0.345 and 0.335, respectively.

Turning to “MAAEKQVPGGGGGGGSGGGGGSGGGGSGGGRGAGGEENKENERPSAGSKANKEFGDSLSLEILQIIKESQQQHGLRHGDFQRYRGYCSRRQRRLRKTLNFKMGNRHKFTGKKVTEELLTDNRYLLLVLMDAERAWSYAMQLKQEANTEPRKRFHLLSRLRKAVKHAEELERLCESNRVDAKTKLEAQAYTAYLSGMLRFEHQEWKAAIEAFNKCKTIYEKLASAFTEEQAVLYNQRVEEISPNIRYCAYNIGDQSAINELMQMRLRSGGTEGLLAEKLEALITQTRAKQAATMSEVEWRGRTVPVKIDKVRIFLLGLADNEAAIVQAESEETKERLFESMLSECRDAIQVVREELKPDQKQRDYILEGEPGKVSNLQYLHSYLTYIKLSTAIKRNENMAKGLQRALLQQQPEDDSKRSPRPQDLIRLYDIILQNLVELLQLPGLEEDKAFQKEIGLKTLVFKAYRCFFIAQSYVLVKKWSEALVLYDRVLKYANEVNSDAGAFKNSLKDLPDVQELITQVRSEKCSLQAAAILDANDAHQTETSSSQVKDNKPLVERFETFCLDPSLVTKQANLVHFPPGFQPIPCKPLFFDLALNHVAFPPLEDKLEQKTKSGLTGYIKGIFGFRS [SRP68]”, the “solubility in G1/S (log2)” value with HeLa Kyoto [1] is -0.033. The melting temperature in the series on HeLa Kyoto [2] (cell cycle stage: G1/S) turned out to be 50.7 °C; with HeLa Kyoto [2] (cell cycle stage: mitosis) it was 49.4 °C. In addition, the “solubility change mitosis (log2)” value in the series with HeLa Kyoto [3] was 0.209. Also, the thermal stability score with HeLa Kyoto [4] (setting [5]) is -0.295; with HeLa Kyoto [4] (cell cycle stage: mitosis) it was -0.156.

As for “MAAEPLTELEESIETVVTTFFTFARQEGRKDSLSVNEFKELVTQQLPHLLKDVGSLDEKMKSLDVNQDSELKFNEYWRLIGELAKEIRKKKDLKIRKK [S100A13]”, the “solubility in G1/S (log2)” value in the series with HeLa Kyoto [1] is -0.421. In addition, the melting temperature in the series on HeLa Kyoto [2] (cell cycle stage: G1/S) is 53.4 °C; with HeLa Kyoto [2] (cell cycle stage: mitosis) it was 52 °C. The “solubility change mitosis (log2)” value in the series on HeLa Kyoto [3] was 0.294. Also, the values for the thermal stability score with HeLa Kyoto [4] (setting [5]) and in the series with HeLa Kyoto [4] (cell cycle stage: mitosis) were -6.56 and -6.62, respectively.

For the sequence “MAAESGSDFQQRRRRRRDPEEPEKTELSERELAVAVAVSQENDEENEERWVGPLPVEATLAKKRKVLEFERVYLDNLPSASMYERSYMHRDVITHVVCTKTDFIITASHDGHVKFWKKIEEGIEFVKHFRSHLGVIESIAVSSEGALFCSVGDDKAMKVFDVVNFDMINMLKLGYFPGQCEWIYCPGDAISSVAASEKSTGKIFIYDGRGDNQPLHIFDKLHTSPLTQIRLNPVYKAVVSSDKSGMIEYWTGPPHEYKFPKNVNWEYKTDTDLYEFAKCKAYPTSVCFSPDGKKIATIGSDRKVRIFRFVTGKLMRVFDESLSMFTELQQMRQQLPDMEFGRRMAVERELEKVDAVRLINIVFDETGHFVLYGTMLGIKVINVETNRCVRILGKQENIRVMQLALFQGIAKKHRAATTIEMKASENPVLQNIQADPTIVCTSFKKNRFYMFTKREPEDTKSADSDRDVFNEKPSKEEVMAATQAEGPKRVSDSAIIHTSMGDIHTKLFPVECPKTVENFCVHSRNGYYNGHTFHRIIKGFMIQTGDPTGTGMGGESIWGGEFEDEFHSTLRHDRPYTLSMANAGSNTNGSQFFITVVPTPWLDNKHTVFGRVTKGMEVVQRISNVKVNPKTDKPYEDVSIINITVK [PPWD1]”, the “solubility in G1/S (log2)” value with HeLa Kyoto [1] is -0.381. Moreover, the melting temperature with HeLa Kyoto [2] (cell cycle stage: G1/S) came to 49.7 °C; in the series on HeLa Kyoto [2] (cell cycle stage: mitosis), 49.8 °C. Also, the “solubility change mitosis (log2)” value with HeLa Kyoto [3] is -0.0306. Further, the thermal stability score turned out to be 0.382 in the series with HeLa Kyoto [4] (setting [5]) and 0.58 in the series with HeLa Kyoto [4] (cell cycle stage: mitosis).
